Test results published in paper PMC3832594.

Biological target: MCT2 tagged at its N-terminus with CFP (rat) (UniProt Q63344)
Test: FRET or BRET; live COS-7 cells co-transfected with MCT2-ECFP (N-terminal) and np55- or np65-EYFP (C-terminal), 48 h after transfection; 37°C, imaging buffer pH 7.4; ratio of emission at 480 nm to 530 nm on excitation at 430 nm (MCT2-CFP alone 1.33±0.016)

Chain of MCT2 tagged at its N-terminus with CFP (rat) (Q63344 whole entry): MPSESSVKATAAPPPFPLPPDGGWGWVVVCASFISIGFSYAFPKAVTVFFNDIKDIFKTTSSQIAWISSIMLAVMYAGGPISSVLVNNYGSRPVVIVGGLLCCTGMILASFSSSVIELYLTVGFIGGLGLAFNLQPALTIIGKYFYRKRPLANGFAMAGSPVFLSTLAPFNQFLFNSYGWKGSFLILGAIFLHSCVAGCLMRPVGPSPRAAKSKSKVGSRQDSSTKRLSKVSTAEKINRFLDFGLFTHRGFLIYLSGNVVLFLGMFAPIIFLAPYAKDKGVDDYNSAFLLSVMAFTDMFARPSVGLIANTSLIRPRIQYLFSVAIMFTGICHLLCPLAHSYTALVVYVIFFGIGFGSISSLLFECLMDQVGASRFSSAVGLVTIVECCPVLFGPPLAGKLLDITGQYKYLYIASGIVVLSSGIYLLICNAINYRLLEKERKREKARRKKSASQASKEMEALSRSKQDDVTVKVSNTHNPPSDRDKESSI
Chain of np55 C-terminally labelled with YFP (natural protein) (P97546 29-393): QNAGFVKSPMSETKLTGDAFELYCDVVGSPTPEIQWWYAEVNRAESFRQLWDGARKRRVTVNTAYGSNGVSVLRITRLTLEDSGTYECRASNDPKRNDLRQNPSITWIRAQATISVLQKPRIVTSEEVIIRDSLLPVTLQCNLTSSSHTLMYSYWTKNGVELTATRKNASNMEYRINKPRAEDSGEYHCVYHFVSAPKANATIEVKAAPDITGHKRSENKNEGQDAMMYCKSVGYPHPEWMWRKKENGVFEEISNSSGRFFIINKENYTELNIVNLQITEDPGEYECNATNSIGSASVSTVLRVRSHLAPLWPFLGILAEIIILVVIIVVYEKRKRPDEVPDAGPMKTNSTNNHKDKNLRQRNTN

## np55 C-terminally labelled with YFP (natural protein)
  480:530 nm fluorescence emission ratio (FRET): 0.797
